# Experimental data taken from patent publication US20230340145A1, “Methods of Treating High Risk Multiple Myeloma” (Janssen Biotech, Inc., priority 2017, published 2023).
# Tests used:
# [1] = tested on: patients with relapsed or refractory multiple myeloma; test: POLLUX (NCT02076009) phase 3 trial, safety (adverse events); type: in vivo, human
# Excerpt: The purpose of this study was to assess the effects of administration of daratumumab when combined with lenalinomide and dexamethasone compared with lenalinomide and dexamethasone alone, for participants with relapsed or refractory multiple myeloma. The study was a multicenter, randomized open-label active-controlled phase 3 trial. A prespecified interim analysis has been described in Dimopoulos et al., NEJM375: 1319-31, 2016. The clinical trial number for this study is NCT02076009. […] For the DRd, the dose of dexamethasone was split: dexamethasone was administered at a dose of 20 mg before infusion as prophylaxis for infusion-related reactions and 20 mg was administered the next day.
# [2] = tested on: patients with relapsed or refractory multiple myeloma; test: CASTOR (NCT02136134) phase 3 trial, safety (adverse events); type: in vivo, human
# Excerpt: The purpose of this study is to assess the effects of administration of daratumumab when combined with VELCADE® (bortezomib) and dexamethasone compared with VELCADE® (bortezomib) and dexamethasone alone, for participants with relapsed or refractory multiple myeloma. The study was a multicenter, randomized open-label active-controlled phase 3 trial. A prespecified interim analysis has been described in Palumpo et al., NEJM375:754-66, 2016. The clinical trial number for this study is NCT02136134. Daratumumab was administered as an IV infusion at a dose of 16 mg/kg once per week (days 1, 8, and 15) for cycles 1-3, once every 3 weeks (on Day 1) during cycles 4-8, and once every 4 weeks thereafter. […] Dexamethasone was administered orally at 20 mg on Days 1, 2, 4, 5, 8, 9, 11, and 12, for a total dose of 160 mg per cycle. Safety assessments included the evaluation of adverse events, clinical laboratory testing, vital signs, and electrocardiography. The adverse events were graded according to the National Cancer Institute Common Terminology Criteria for Adverse Events, version 4.03.
substance,measurement,setting,value
daratumumab,Infusion-related reactions occurring during the first infusion,[1]; % of the reactions,92%
same,Incidence of daratumumab infusion-related reactions of any grade,[1]; DRd arm,47.7%
same,Infusion-related event of grade 4 or 5,[1]; in vivo,no patient
same,Infusion-related reaction: cough,[1]; in vivo,8.5%
same,Infusion-related reaction: dyspnea,[1]; in vivo,8.5%
same,Infusion-related reaction: vomiting,[1]; in vivo,5.7%
same,Patients who discontinued daratumumab because of a grade 3 infusion-related event,[1]; in vivo,One
same,Patients with infusion-related reactions whose events occurred during the first infusion,[2]; % of patients with infusion-related reactions,98.2%
same,Infusion-related reactions of any grade,"[2]; associated with daratumumab, DVd arm",45.3%
same,Grade 4 infusion-related events,[2]; in vivo,no grade 4 events
same,Infusion-related reaction: bronchospasm,[2]; in vivo,9.1%
same,Infusion-related reaction: cough,[2]; in vivo,7.0%
same,Infusion-related reaction: dyspnea,[2]; in vivo,10.7%
same,Patients who discontinued treatment because of infusion-related reactions,[2]; in vivo,Two
